Source: article PMC8591083, “Catechol 1,2-Dioxygenase From Paracoccus sp. MKU1—A Greener and Cleaner Bio-Machinery for cis, cis-Muconic Acid Production by Recombinant E. coli” (Frontiers in Bioengineering and Biotechnology, 2021)

Tests used:
[1] = molecular target: Catechol 1,2-dioxygenase from Paracoccus sp. MKU1 (Paracoccus sp. MKU1); assay: SEC; purified C12O on Sephacryl S-300 HR, 50 mM Tris-HCl pH 8.5, 1 ml/min, A280; calibrated with NativeMark standards (20-1,236 kDa)
Oc1ccccc1O = assay: purified protein; conditions: 50 mM Tris-HCl pH 7.5, 37 °C, 20 min, catechol 0-200 µM, substrate O2 from air

Substance	stoichiometry N [1]	Km (Oc1ccccc1O) [µM]	kcat (Oc1ccccc1O) [s⁻¹]
Catechol 1,2-dioxygenase from Paracoccus sp. MKU1 (enzyme)	3	–	–
Catechol 1,2-dioxygenase (C12O) (Paracoccus sp. MKU1)	–	12.89	199.5
